*1 amine or outer side, *2 acyl side, *3 side chain or, on linkers, in order; H or OH if unused. Where no end group is shown, it is not given here. Side-chain parts run from the residue outwards. [ ]: non-standard residue; d: D form. The star is where a group is joined. γGlu = O=C(O)[C@H](CCC(=O)[*:2])N[*:1]; Palmitoyl = CCCCCCCCCCCCCCCC(=O)*; Aib = CC(C)(N)C(=O)O
What was measured:
Test in all cases: cell-based or functional assay
human GIP receptor = target: T1, human GIP receptor (human, UniProt P48546 22-466)
T1 sequence (looked up): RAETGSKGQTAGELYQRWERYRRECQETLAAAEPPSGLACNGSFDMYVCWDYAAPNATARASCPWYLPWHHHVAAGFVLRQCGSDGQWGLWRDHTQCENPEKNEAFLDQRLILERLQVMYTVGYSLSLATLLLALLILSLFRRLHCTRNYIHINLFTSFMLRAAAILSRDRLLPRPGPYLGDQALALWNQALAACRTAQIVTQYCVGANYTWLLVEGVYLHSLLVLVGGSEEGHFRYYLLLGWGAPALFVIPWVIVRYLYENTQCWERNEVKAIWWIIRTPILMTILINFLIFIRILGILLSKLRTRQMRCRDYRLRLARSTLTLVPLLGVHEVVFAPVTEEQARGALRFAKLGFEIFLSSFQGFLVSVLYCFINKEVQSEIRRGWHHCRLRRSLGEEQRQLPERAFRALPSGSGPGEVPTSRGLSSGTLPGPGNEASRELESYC

human glucagon receptor = human glucagon receptor (human, UniProt P47871 26-477)
human GLP-1 receptor = human GLP-1 receptor (human, UniProt P43220 24-463)

Chain of human glucagon receptor (P47871 26-477): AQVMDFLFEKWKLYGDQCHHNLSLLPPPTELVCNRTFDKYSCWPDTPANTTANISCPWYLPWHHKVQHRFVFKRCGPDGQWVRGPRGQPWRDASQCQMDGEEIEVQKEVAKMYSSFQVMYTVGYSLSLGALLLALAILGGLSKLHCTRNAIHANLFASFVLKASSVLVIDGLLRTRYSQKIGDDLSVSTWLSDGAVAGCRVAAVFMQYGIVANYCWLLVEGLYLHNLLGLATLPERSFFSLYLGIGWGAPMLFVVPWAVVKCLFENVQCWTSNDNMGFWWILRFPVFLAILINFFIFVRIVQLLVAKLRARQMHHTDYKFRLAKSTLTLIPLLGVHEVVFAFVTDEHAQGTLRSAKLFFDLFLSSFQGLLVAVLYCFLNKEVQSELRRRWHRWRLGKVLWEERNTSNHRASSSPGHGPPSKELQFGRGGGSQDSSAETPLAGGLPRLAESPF

B1: SEQ ID NO: 28 (peptide)
peptide: Y[Aib]QGTFTSDLSIQK([γGlu-Palmitoyl])DKRAAQDFIEWLKAGGPSSGAPPPS-NH2
modifications: N-terminus assumed
SMILES: CCCCCCCCCCCCCCCC(=O)N[C@@H](CCC(=O)NCCCC[C@H](NC(=O)[C@H](CCC(N)=O)NC(=O)[C@@H](NC(=O)[C@H](CO)NC(=O)[C@H](CC(C)C)NC(=O)[C@H](CC(=O)O)NC(=O)[C@H](CO)NC(=O)[C@@H](NC(=O)[C@H](Cc1ccccc1)NC(=O)[C@@H](NC(=O)CNC(=O)[C@H](CCC(N)=O)NC(=O)C(C)(C)NC(=O)[C@@H](N)Cc1ccc(O)cc1)[C@@H](C)O)[C@@H](C)O)[C@@H](C)CC)C(=O)N[C@@H](CC(=O)O)C(=O)N[C@@H](CCCCN)C(=O)N[C@@H](CCCNC(=N)N)C(=O)N[C@@H](C)C(=O)N[C@@H](C)C(=O)N[C@@H](CCC(N)=O)C(=O)N[C@@H](CC(=O)O)C(=O)N[C@@H](Cc1ccccc1)C(=O)N[C@H](C(=O)N[C@@H](CCC(=O)O)C(=O)N[C@@H](Cc1c[nH]c2ccccc12)C(=O)N[C@@H](CC(C)C)C(=O)N[C@@H](CCCCN)C(=O)N[C@@H](C)C(=O)NCC(=O)NCC(=O)N1CCC[C@H]1C(=O)N[C@@H](CO)C(=O)N[C@@H](CO)C(=O)NCC(=O)N[C@@H](C)C(=O)N1CCC[C@H]1C(=O)N1CCC[C@H]1C(=O)N1CCC[C@H]1C(=O)N[C@@H](CO)C(N)=O)[C@@H](C)CC)C(=O)O
EC50 hGIP R [pM] (human GIP receptor): 10.9 pM
EC50 hGLUC R [pM] (human glucagon receptor): 9.9 pM
EC50 hGLP-1 R [pM] (human GLP-1 receptor): 3.2 pM

B2: SEQ ID NO: 25 (peptide)
peptide: Y[Aib]EGTFTSDLSIQK([γGlu-Palmitoyl])ESRAAQEFIEWLKNTGPSSGAPPPS-NH2
modifications: N-terminus assumed
SMILES: CCCCCCCCCCCCCCCC(=O)N[C@@H](CCC(=O)NCCCC[C@H](NC(=O)[C@H](CCC(N)=O)NC(=O)[C@@H](NC(=O)[C@H](CO)NC(=O)[C@H](CC(C)C)NC(=O)[C@H](CC(=O)O)NC(=O)[C@H](CO)NC(=O)[C@@H](NC(=O)[C@H](Cc1ccccc1)NC(=O)[C@@H](NC(=O)CNC(=O)[C@H](CCC(=O)O)NC(=O)C(C)(C)NC(=O)[C@@H](N)Cc1ccc(O)cc1)[C@@H](C)O)[C@@H](C)O)[C@@H](C)CC)C(=O)N[C@@H](CCC(=O)O)C(=O)N[C@@H](CO)C(=O)N[C@@H](CCCNC(=N)N)C(=O)N[C@@H](C)C(=O)N[C@@H](C)C(=O)N[C@@H](CCC(N)=O)C(=O)N[C@@H](CCC(=O)O)C(=O)N[C@@H](Cc1ccccc1)C(=O)N[C@H](C(=O)N[C@@H](CCC(=O)O)C(=O)N[C@@H](Cc1c[nH]c2ccccc12)C(=O)N[C@@H](CC(C)C)C(=O)N[C@@H](CCCCN)C(=O)N[C@@H](CC(N)=O)C(=O)N[C@H](C(=O)NCC(=O)N1CCC[C@H]1C(=O)N[C@@H](CO)C(=O)N[C@@H](CO)C(=O)NCC(=O)N[C@@H](C)C(=O)N1CCC[C@H]1C(=O)N1CCC[C@H]1C(=O)N1CCC[C@H]1C(=O)N[C@@H](CO)C(N)=O)[C@@H](C)O)[C@@H](C)CC)C(=O)O
EC50 hGIP R [pM] (human GIP receptor): 73.6 pM
EC50 hGLUC R [pM] (human glucagon receptor): 20500 pM
EC50 hGLP-1 R [pM] (human GLP-1 receptor): 9.5 pM

B3: SEQ ID NO: 27 (peptide)
peptide: Y[Aib]EGTFTSDLSIQK([γGlu-Palmitoyl])EKRAA[Aib]DFIEWLKNTGPSSGAPPPS-NH2
modifications: N-terminus assumed
SMILES: CCCCCCCCCCCCCCCC(=O)N[C@@H](CCC(=O)NCCCC[C@H](NC(=O)[C@H](CCC(N)=O)NC(=O)[C@@H](NC(=O)[C@H](CO)NC(=O)[C@H](CC(C)C)NC(=O)[C@H](CC(=O)O)NC(=O)[C@H](CO)NC(=O)[C@@H](NC(=O)[C@H](Cc1ccccc1)NC(=O)[C@@H](NC(=O)CNC(=O)[C@H](CCC(=O)O)NC(=O)C(C)(C)NC(=O)[C@@H](N)Cc1ccc(O)cc1)[C@@H](C)O)[C@@H](C)O)[C@@H](C)CC)C(=O)N[C@@H](CCC(=O)O)C(=O)N[C@@H](CCCCN)C(=O)N[C@@H](CCCNC(=N)N)C(=O)N[C@@H](C)C(=O)N[C@@H](C)C(=O)NC(C)(C)C(=O)N[C@@H](CC(=O)O)C(=O)N[C@@H](Cc1ccccc1)C(=O)N[C@H](C(=O)N[C@@H](CCC(=O)O)C(=O)N[C@@H](Cc1c[nH]c2ccccc12)C(=O)N[C@@H](CC(C)C)C(=O)N[C@@H](CCCCN)C(=O)N[C@@H](CC(N)=O)C(=O)N[C@H](C(=O)NCC(=O)N1CCC[C@H]1C(=O)N[C@@H](CO)C(=O)N[C@@H](CO)C(=O)NCC(=O)N[C@@H](C)C(=O)N1CCC[C@H]1C(=O)N1CCC[C@H]1C(=O)N1CCC[C@H]1C(=O)N[C@@H](CO)C(N)=O)[C@@H](C)O)[C@@H](C)CC)C(=O)O
EC50 hGIP R [pM] (human GIP receptor): 6.7 pM
EC50 hGLUC R [pM] (human glucagon receptor): 6390 pM
EC50 hGLP-1 R [pM] (human GLP-1 receptor): 4 pM

B4: SEQ ID NO: 24 (peptide)
peptide: Y[Aib]EGTFTSDLSIQK([γGlu-Palmitoyl])ESRAA[Aib]DFIEWLKNTGPSSGAPPPS-NH2
modifications: N-terminus assumed
SMILES: CCCCCCCCCCCCCCCC(=O)N[C@@H](CCC(=O)NCCCC[C@H](NC(=O)[C@H](CCC(N)=O)NC(=O)[C@@H](NC(=O)[C@H](CO)NC(=O)[C@H](CC(C)C)NC(=O)[C@H](CC(=O)O)NC(=O)[C@H](CO)NC(=O)[C@@H](NC(=O)[C@H](Cc1ccccc1)NC(=O)[C@@H](NC(=O)CNC(=O)[C@H](CCC(=O)O)NC(=O)C(C)(C)NC(=O)[C@@H](N)Cc1ccc(O)cc1)[C@@H](C)O)[C@@H](C)O)[C@@H](C)CC)C(=O)N[C@@H](CCC(=O)O)C(=O)N[C@@H](CO)C(=O)N[C@@H](CCCNC(=N)N)C(=O)N[C@@H](C)C(=O)N[C@@H](C)C(=O)NC(C)(C)C(=O)N[C@@H](CC(=O)O)C(=O)N[C@@H](Cc1ccccc1)C(=O)N[C@H](C(=O)N[C@@H](CCC(=O)O)C(=O)N[C@@H](Cc1c[nH]c2ccccc12)C(=O)N[C@@H](CC(C)C)C(=O)N[C@@H](CCCCN)C(=O)N[C@@H](CC(N)=O)C(=O)N[C@H](C(=O)NCC(=O)N1CCC[C@H]1C(=O)N[C@@H](CO)C(=O)N[C@@H](CO)C(=O)NCC(=O)N[C@@H](C)C(=O)N1CCC[C@H]1C(=O)N1CCC[C@H]1C(=O)N1CCC[C@H]1C(=O)N[C@@H](CO)C(N)=O)[C@@H](C)O)[C@@H](C)CC)C(=O)O
EC50 hGIP R [pM] (human GIP receptor): 23.5 pM
EC50 hGLUC R [pM] (human glucagon receptor): 38900 pM
EC50 hGLP-1 R [pM] (human GLP-1 receptor): 13.5 pM

B5: SEQ ID NO: 26 (peptide)
peptide: Y[Aib]EGTFTSDLSIQK([γGlu-Palmitoyl])EKRAAQEFIEWLKNTGPSSGAPPPS-NH2
modifications: N-terminus assumed
SMILES: CCCCCCCCCCCCCCCC(=O)N[C@@H](CCC(=O)NCCCC[C@H](NC(=O)[C@H](CCC(N)=O)NC(=O)[C@@H](NC(=O)[C@H](CO)NC(=O)[C@H](CC(C)C)NC(=O)[C@H](CC(=O)O)NC(=O)[C@H](CO)NC(=O)[C@@H](NC(=O)[C@H](Cc1ccccc1)NC(=O)[C@@H](NC(=O)CNC(=O)[C@H](CCC(=O)O)NC(=O)C(C)(C)NC(=O)[C@@H](N)Cc1ccc(O)cc1)[C@@H](C)O)[C@@H](C)O)[C@@H](C)CC)C(=O)N[C@@H](CCC(=O)O)C(=O)N[C@@H](CCCCN)C(=O)N[C@@H](CCCNC(=N)N)C(=O)N[C@@H](C)C(=O)N[C@@H](C)C(=O)N[C@@H](CCC(N)=O)C(=O)N[C@@H](CCC(=O)O)C(=O)N[C@@H](Cc1ccccc1)C(=O)N[C@H](C(=O)N[C@@H](CCC(=O)O)C(=O)N[C@@H](Cc1c[nH]c2ccccc12)C(=O)N[C@@H](CC(C)C)C(=O)N[C@@H](CCCCN)C(=O)N[C@@H](CC(N)=O)C(=O)N[C@H](C(=O)NCC(=O)N1CCC[C@H]1C(=O)N[C@@H](CO)C(=O)N[C@@H](CO)C(=O)NCC(=O)N[C@@H](C)C(=O)N1CCC[C@H]1C(=O)N1CCC[C@H]1C(=O)N1CCC[C@H]1C(=O)N[C@@H](CO)C(N)=O)[C@@H](C)O)[C@@H](C)CC)C(=O)O
EC50 hGIP R [pM] (human GIP receptor): 19.7 pM
EC50 hGLUC R [pM] (human glucagon receptor): 8510 pM
EC50 hGLP-1 R [pM] (human GLP-1 receptor): 4.9 pM

B6: SEQ ID NO: 23 (peptide)
peptide: Y[Aib]EGTFTSDLSIQK([γGlu-Palmitoyl])ESRAAQDFIEWLKNTGPSSGAPPPS-NH2
modifications: N-terminus assumed
SMILES: CCCCCCCCCCCCCCCC(=O)N[C@@H](CCC(=O)NCCCC[C@H](NC(=O)[C@H](CCC(N)=O)NC(=O)[C@@H](NC(=O)[C@H](CO)NC(=O)[C@H](CC(C)C)NC(=O)[C@H](CC(=O)O)NC(=O)[C@H](CO)NC(=O)[C@@H](NC(=O)[C@H](Cc1ccccc1)NC(=O)[C@@H](NC(=O)CNC(=O)[C@H](CCC(=O)O)NC(=O)C(C)(C)NC(=O)[C@@H](N)Cc1ccc(O)cc1)[C@@H](C)O)[C@@H](C)O)[C@@H](C)CC)C(=O)N[C@@H](CCC(=O)O)C(=O)N[C@@H](CO)C(=O)N[C@@H](CCCNC(=N)N)C(=O)N[C@@H](C)C(=O)N[C@@H](C)C(=O)N[C@@H](CCC(N)=O)C(=O)N[C@@H](CC(=O)O)C(=O)N[C@@H](Cc1ccccc1)C(=O)N[C@H](C(=O)N[C@@H](CCC(=O)O)C(=O)N[C@@H](Cc1c[nH]c2ccccc12)C(=O)N[C@@H](CC(C)C)C(=O)N[C@@H](CCCCN)C(=O)N[C@@H](CC(N)=O)C(=O)N[C@H](C(=O)NCC(=O)N1CCC[C@H]1C(=O)N[C@@H](CO)C(=O)N[C@@H](CO)C(=O)NCC(=O)N[C@@H](C)C(=O)N1CCC[C@H]1C(=O)N1CCC[C@H]1C(=O)N1CCC[C@H]1C(=O)N[C@@H](CO)C(N)=O)[C@@H](C)O)[C@@H](C)CC)C(=O)O
EC50 hGIP R [pM] (human GIP receptor): 79.5 pM
EC50 hGLUC R [pM] (human glucagon receptor): 19100 pM
EC50 hGLP-1 R [pM] (human GLP-1 receptor): 11.8 pM

From patent US20140206609A1 (Sanofi, published 2014)
